{"source": "patent US6350573B1", "about": "“Methods for identifying herbicidal agents that inhibit D1 protease” (E. I. du Pont de Nemours and Company, priority 1998, dated 2002)", "molecules": {"B1": {"name": "wheat D1 protease purified from wheat leaves (Triticum aestivum, var. Fidel) (protein)", "chain": "LTEENLLFLEAWRAVDRAYYDKSFNGQSWFRYRERALRDDPMNTRQETYAAIKKMLATLDDPFTRLLEPEKFKSLRSGTQGALTGVGLSIGYPLALKGSPAGLSVMSAAPGGPAEKAGIVSGDVILAIDDTSAQDMDIYDAADRLQGPEGSSIDLTILSGADTRHVVLKRERYTLNPVRSRMCEIPGSEDSSKIGYIKLTTFNQNAAGSVKEAIKKLREKNVKAFVLDLRNNSGGLFPEGIEIAKIWMDKGVIVYICDSRGVRDIYEADGASTIAASEPLVVLVNKGTASASEILAGALKDNKRAVVYGEPTYGKGKIQSVFALSDGSGLAVTVARYETPAHTDIDKVGVTPDRPLPASFPTDEDGFCSCLRDPASCNLNAARLFVRS"}, "B2": {"name": "D1 protease from Scenedesmus obliquus (protein)", "chain": "VTSEQLLFLEAWRAVDRAYVDKSFNGQSWFKLRETYLKKEPMDRRAQTYDAIRKLLAVLDDPFTRFLEPSRLAALRRGTAGSVTGVGLEITYDGGSGKDVVVLTPAPGGPAEKAGARAGDVIVTVDGTAVKGLSLYDVSDLLQGEADSQVEVVLHAPGAPSNTRTLQLTRQKVTINPVTFTTCSNVAAAALPPGAAKQQLGYVRLATFNSNTTAAAQQAFTELSKQGVAGLVLDIRNNGGGLFPAGVNVARMLVDRGDLVLIADSQGIRDIYSADGNSIDSATPLVVLVNRGTASASEVLAGALKDSKRGLIAGERTFGKGLIQTVVDLSDGSGVAVTVARYQTPAGVDINKIGVSPDVQLDPEVLPTDLEGVCRVLGSDAAPRLFG"}, "B3": {"name": "recombinant wheat D1 protease expressed in E. coli from pET-32a(+) (thioredoxin-D1 protease fusion, refolded) (protein)", "chain": "B1 chain"}}, "key": {"[1]": {"test_system": "wheat D1 protease", "assay": "In vitro high-throughput assay with LF-1 thylakoid membrane fragments containing pre-D1, detecting the mature D1 enzyme product", "format": "biochemical", "settings": "7 mM Z-LDLA-CMK; D1 protease pre-incubated with it for 1 h at pH 7.0; same assay without inhibitor 0.141 OD; without D1P 0.023 OD", "from_the_text": "The assay was capable of detecting both type of products. Because this assay used isolated thylakoid membrane containing the D1 pre-protein substrate the assay could be run at a pH similar to that found in the whole plant.\nThe PSII-enriched thylakoid membrane fragment was isolated from Scenedesmus LF-1 mutant cells using a mild TRITON X-100-treatment as follows:\nScenedesmus cells were broken in a “bead-beater” (Biospec Products, Bartlesville, Okla.) in an ice-water bath with 1-mm diameter glass beads using 10 bursts of 45 sec each. […]\nWhen using the type 2 HRP conjugated primary antibody […] of colorimetric substrate, TMB (Kirkgaard & Perry Laboratories, Inc., Gaithersburg, Md.) or fluorescent substrate, N-acetyl-3,7-dihydroxyphenoxazine (A6550, Molecular Probes, Inc., Eugene, Oreg.) or chemiluminescence substrate, BM Chemiluminescence ELISA Reagent (Boehringer Mannheim Corp., Indianapolis, Ind.) was added to each well. […] Next the substrate was transfered to a regular plastic 96-well microtiter plate using the manifold and vacuum and then read for absorption or fluorescence or chmiluminescence intensity. […]"}, "[2]": {"molecular_target": "D1 pre-protein (unprocessed D1 polypeptide) of the Scenedesmus obliquus LF-1 mutant, in PSII core complexes or thylakoid membrane fragments"}, "[3]": {"molecular_target": "T1, internally quenched fluorescent substrate Ac-NAHN(K-Dnp)PLDLAAVE(K-Mca)PSING-OH", "T1 chain": "AHNKPLDLAAVEKPSING"}}, "note": "Where a SMILES comes first, the peptide text is derived from it. The star is where a group is joined. Cbz = O=C(OCc1ccccc1)*; CH2Cl = ClC*"}
{"molecule": "CC(C)C[C@H](NC(=O)OCc1ccccc1)C(=O)N[C@@H](CC(=O)O)C(=O)N[C@@H](CC(C)C)C(=O)N[C@@H](C)C(=O)CCl", "note": "[Z-LDLA-CMK, Z-Leu-Asp-Leu-Ala-CH2Cl] (Cbz-LDLA-CH2Cl)", "values": [{"measurement": "Type2 AB and TMB, Absorption change, With D1P", "setting": "[1]", "result": 0.081, "unit": "OD"}]}
{"molecule": "B1", "values": [{"measurement": "Type1 AB and ATTOPHOS (Fluorescence intensity), With D1P", "setting": "[2]", "result": 1070, "unit": "RU"}, {"measurement": "Type1 AB and PNP (Absorbance OD 450-650), With D1P", "setting": "[2]", "result": 0.365, "unit": "OD"}, {"measurement": "Type2 AB and A6550 (Fluorescence intensity), With D1P", "setting": "[2]", "result": 263, "unit": "RU"}, {"measurement": "Type2 AB and BM (Chemiluminescence intensity), With D1P", "setting": "[2]", "result": 33, "unit": "RU"}, {"measurement": "Type2 AB and TMB (Absorbance at OD 650-450), With D1P", "setting": "[2]", "result": 0.141, "unit": "OD"}, {"measurement": "fluorescamine fluorescence of the released C-terminal D1-tail, Well with D1 protease", "setting": "[2]", "result": "515 ± 10", "unit": "relative units"}, {"measurement": "fluorescence intensity of the internally quenched substrate (excitation 320 nm, emission 409 nm)", "setting": "[3]", "result": "samples containing active enzyme were measured at 3000 fluorescence units"}]}
{"molecule": "B2", "values": [{"measurement": "microtiter plate ELISA of D1 protease activity (color reaction, percent of pre-D1 cleaved)", "setting": "[2]", "result": "the intensity of the color reaction is shown to be proportional to enzyme concentration up to approximately 20% of pre-D1 cleaved"}]}
{"molecule": "B3", "values": [{"measurement": "specific activity in the microtiter plate ELISA assay", "setting": "[2]", "result": "The specific activity of the recombinant enzyme, expressed in relative units, is close to that of the natural enzyme isolated from wheat leaves"}]}
